Changes are numbered by the printed parent chain.
B1: C0020187 scFv (scFv, V domains shown)
VH: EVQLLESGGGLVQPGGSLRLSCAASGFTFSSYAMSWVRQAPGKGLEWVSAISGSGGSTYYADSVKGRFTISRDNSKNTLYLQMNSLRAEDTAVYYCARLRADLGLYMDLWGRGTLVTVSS
VL: QSVLTQPPSVSAAPGQKVTISCSGSSSNIGNHYVSWYQQLPGTAPKLLIYDNSERPSGIPDRFSGSKSGTSATLGITGLQTGDEADYYCGTWDSSLSALVFGGGTKLTVL
notes: c-myc tagged scFv; also called parent C0020187 scFv
B2: C0020187 Fab (Fab, V domains shown)
VH: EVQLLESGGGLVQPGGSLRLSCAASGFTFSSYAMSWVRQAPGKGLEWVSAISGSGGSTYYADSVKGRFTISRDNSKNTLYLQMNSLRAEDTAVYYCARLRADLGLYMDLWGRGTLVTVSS
VL: B1 VL
notes: Human Fab (CH1 and part of the hinge; light chain constant domain); also called Fab of C0020187

Key:
[1] = target: T1, recombinant human trimeric ARG2 enzyme (construct not given) (human, UniProt P78540 23-354); assay: cell-based or functional assay
T1 sequence (looked up): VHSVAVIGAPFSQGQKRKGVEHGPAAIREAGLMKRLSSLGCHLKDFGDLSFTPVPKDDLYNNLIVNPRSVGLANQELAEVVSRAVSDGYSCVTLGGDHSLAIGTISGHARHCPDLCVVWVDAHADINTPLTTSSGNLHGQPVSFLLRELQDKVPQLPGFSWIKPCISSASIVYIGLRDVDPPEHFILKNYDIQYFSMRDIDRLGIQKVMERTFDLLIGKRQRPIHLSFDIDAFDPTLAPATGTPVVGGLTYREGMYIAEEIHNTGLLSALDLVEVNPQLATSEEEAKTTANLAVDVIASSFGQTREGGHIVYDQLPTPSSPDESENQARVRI

[2] = target: T2, biotinylated recombinant human trimeric ARG2 enzyme (Avi-huARG2-His10) (human, UniProt P78540 23-354, biotinylated); assay: HTRF epitope competition, scFv titrated, competitor C0020187 IgG, on biotinylated human trimeric ARG2
T2 construct: also called avi-Arg2-His10; bio-ARG2
T2 chain: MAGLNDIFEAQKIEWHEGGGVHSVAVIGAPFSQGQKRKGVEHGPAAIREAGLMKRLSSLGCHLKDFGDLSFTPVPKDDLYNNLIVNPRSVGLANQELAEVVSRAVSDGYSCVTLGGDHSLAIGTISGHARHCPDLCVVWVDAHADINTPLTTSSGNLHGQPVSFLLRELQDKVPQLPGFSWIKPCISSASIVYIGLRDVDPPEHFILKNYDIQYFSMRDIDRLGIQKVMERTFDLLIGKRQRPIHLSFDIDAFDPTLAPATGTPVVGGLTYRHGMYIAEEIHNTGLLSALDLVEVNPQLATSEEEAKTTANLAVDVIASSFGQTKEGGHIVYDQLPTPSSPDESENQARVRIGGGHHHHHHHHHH

[3] = target: T2, biotinylated recombinant human trimeric …; assay: HTRF direct binding assay, biotinylated recombinant human trimeric ARG2, streptavidin cryptate and anti-c-myc-XL665, % Delta F
Description: In this assay, binding of unpurified scFv to recombinant human trimeric ARG2 enzyme was assessed by measuring the fluorescence resonance energy transfer (FRET) between the c-myc tagged scFv and the biotinylated enzyme using streptavidin cryptate and anti-c-myc-XL665 detection reagents (CisBio International, France; cat: 610SAKLB and 61 MYCXLB respectively). Selection outputs were screened as unpurified bacterial periplasmic extracts containing scFv, prepared in 200 mM tris buffer pH 7.4, 0.5 mM EDTA and 0.5 M sucrose. 5 μl of unpurified scFv samples were added to a Greiner® 384 well assay plate (Greiner Bio-one, UK; cat: 784076). This was followed by the addition of 5 μl of 12 nM recombinant human trimeric ARG2 enzyme, 5 μl of 6.67 nM streptavidin cryptate and 5 μl 40 nM anti-c-myc-XL665. […] Assay plates were incubated overnight at 4° C. prior to reading time resolved fluorescence on a Pherastar plate reader ([…]) using an excitation wavelength of 320 nm and measuring the emission at 620 nm and 665 nm (100 flashes).
The ARG2 binding profile of each purified scFv was determined by testing a dilution series of the purified scFv in the HTRF™ assay described in section 1.4, substituting the unpurified scFv periplasmic preparation with the purified scFv. […]

[4] = target: T3, biotinylated recombinant cynomolgus monkey trimeric ARG2 enzyme (Avi-cynoARG2-His10) (cynomolgus monkey, UniProt P78540 23-354 (human entry), biotinylated); assay: HTRF direct binding assay, biotinylated recombinant cynomolgus trimeric ARG2, streptavidin cryptate and anti-c-myc-XL665, Delta F %
T3 construct: also called cynomolgus ARG2
T3 chain: T2 chain with A189P, R231Q, H273E, K325R, D333G

[5] = target: T4, biotinylated recombinant human trimeric ARG1 enzyme (Avi-huARG1-His10) (human, UniProt P05089 1-322, biotinylated in HTRF and streptavidin BLI assays); assay: HTRF direct binding assay, biotinylated recombinant human trimeric ARG1
T4 construct: also called Human ARG1; recombinant ARG1
T4 sequence: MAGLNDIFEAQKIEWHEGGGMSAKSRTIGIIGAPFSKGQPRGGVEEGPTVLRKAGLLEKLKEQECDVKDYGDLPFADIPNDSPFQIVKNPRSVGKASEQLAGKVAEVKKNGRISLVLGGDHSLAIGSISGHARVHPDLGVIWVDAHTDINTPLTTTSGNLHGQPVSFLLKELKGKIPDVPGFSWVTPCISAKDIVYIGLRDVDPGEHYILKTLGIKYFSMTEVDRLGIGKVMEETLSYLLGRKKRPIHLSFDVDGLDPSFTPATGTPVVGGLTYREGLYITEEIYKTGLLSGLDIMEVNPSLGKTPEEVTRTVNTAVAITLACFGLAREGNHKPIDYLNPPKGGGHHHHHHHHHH

[6] = target: T4, biotinylated recombinant human trimeric …; assay: BLI (OctetRED), biotinylated ARG1 on streptavidin tip
Description: (§1) The affinity of binding between the Fab of C0020187 and human ARG2, cynomolgus ARG2 and human ARG1 was estimated using assays in which the biotinylated ARG antigen was captured on a streptavidin sensor tip. A fresh sensor tip was used for each measurement and no regeneration was used. A series of dilutions of the C0020187 Fab (3.25-240 nM) were individually placed in contact with the ligand surface for a sufficient amount of time to observe sensorgrams that could be fitted to an appropriate binding model with confidence (typically 5 minutes), followed by an appropriate length of dissociation time (typically 10 minutes). Blank reference (0 nM Fab) data were subtracted from each dataset to reduce the impact of any buffer artefacts or non-specific binding effects. An appropriate binding model was then fitted simultaneously to the data from each analyte titration using the Octet Evaluation software.

[7] = target: T2, biotinylated recombinant human trimeric …; assay: BLI (OctetRED), biotinylated ARG on streptavidin tip, Fab as analyte, 1:1 fit
Description: (§2) An Octet Kinetics Buffer (PBS containing 0.01% BSA and 0.002% Tween20) is typically used as the diluent buffer for the analyte samples and as the flow buffer during the dissociation phase. The experimental data is recorded over time as shift in interference pattern (nm) over time, which is directly proportional to the optical thickness at the biosensor tip, which in turn is an approximate measure of the mass of analyte bound. The proprietary Octet Data Analysis software package can then be used to process data and fit binding models to the data sets. Returned association (kₐ, M⁻¹ s⁻¹) and dissociation (kd, s⁻¹) rate constants allow calculation of dissociation (KD, M) affinity constants.
as §1
(§3) Example results for C0020187 are shown in Table 9, showing the association rate constants (kₐ), dissociation rate constants (kd) and dissociation constants (KD). These parameters were derived from a 1:1 binding fit to the data.

[8] = target: T3, biotinylated recombinant cynomolgus …; assay: as above
Description: as §2, §1, §3

Binder	Trimeric human ARG2 EIA IC50 [1]	IC50 [2]	EC50 (read off the curve) [3]	EC50 (read off the curve) [4]	binding result [5]	binding result [6]	Kd [7]	koff [7]	kon [7]	Kd [8]	koff [8]	kon [8]
B1	964 nM	1580 nM	~20 nM	~10 nM	no binding (tested: log M -6 (1e-6 M))							
B2						no binding (tested: 3.25-240 nM Fab)	8.35 nM	0.000577 s⁻¹	69200 M⁻¹ s⁻¹	6.26 nM	0.000631 s⁻¹	101000 M⁻¹ s⁻¹
